Assay results reported in the Human Domainome abundance scans (Beltran et al. 2025).
± gives the uncertainty stated by the source.

B1: Lysine-specific demethylase 5C, residues 319 to 373; numbered along this chain, P41229 (parent)
chain: AQFIESYVCRMCSRGDEDDKLLLCDGCDDNYHIFCLLPPLPEIPKGVWRCPKCVM
B2: Pre-mRNA-processing factor 40 homolog B, residues 274 to 332; numbered along this chain, Q6NWY9 (parent)
chain: SNREKAKQAFKELLRDKAVPSNASWEQAMKMVVTDPRYSALPKLSEKKQAFNAYKAQRE

Variants of: B1
Assay: abundance fitness (aPCA) (normalised: wild type 0, dead -1); higher = more abundant; growth selection in yeast, the domain comes from the species named
Conditions: Homo sapiens

Y7K and Y7I are within error of each other in abundance fitness: 0.155 ± 0.17 for the first, -0.023 ± 0.18 for the second.

First: Y7W
Second: Y7A
The abundance fitness of the first is lower: -0.266 ± 0.17 for the first, 0.18 ± 0.13 for the second.

Y7E and M11I are within error of each other in abundance fitness: 0.193 ± 0.19 for the first, -0.121 ± 0.21 for the second.

M11S and M11A are within error of each other in abundance fitness: -0.138 ± 0.11 for the first, -0.079 ± 0.096 for the second.

M11N and M11G are within error of each other in abundance fitness: 0.045 ± 0.21 for the first, -0.072 ± 0.11 for the second.

Going from M11W to M11E, the abundance fitness rises from -0.18 ± 0.13 to 0.171 ± 0.14.

Going from M11K to M11P, the abundance fitness falls from 0.169 ± 0.13 to -0.669 ± 0.17.

M11C and M11L are within error of each other in abundance fitness: -0.085 ± 0.18 for the first, -0.264 ± 0.093 for the second.

M11V and M11D are within error of each other in abundance fitness: -0.135 ± 0.12 for the first, -0.063 ± 0.23 for the second.

Going from M11R to M11T, the abundance fitness falls from 0.073 ± 0.086 to -0.211 ± 0.16.

M11Q and M11H are within error of each other in abundance fitness: 0.045 ± 0.14 for the first, -0.281 ± 0.22 for the second.

Variants of: B2
Assay: as above
Conditions: Homo sapiens

F51G and F51W are within error of each other in abundance fitness: -0.28 ± 0.35 for the first, -0.61 ± 0.33 for the second.

F51K and F51S are within error of each other in abundance fitness: -0.371 ± 0.22 for the first, -0.463 ± 0.41 for the second.

Compared with Q57C, Q57Y is lower in abundance fitness: -0.156 ± 0.075 for the first, -0.715 ± 0.11 for the second.

Going from Q57F to Q57V, the abundance fitness rises from -0.514 ± 0.12 to -0.257 ± 0.057.

Q57M and Q57P are within error of each other in abundance fitness: -0.322 ± 0.091 for the first, -0.249 ± 0.071 for the second.

First: Q57W
Second: Q57I
The abundance fitness of the first is higher: -0.138 ± 0.066 for the first, -0.565 ± 0.1 for the second.

First: Q57S
Second: Q57T
The abundance fitness of the first is higher: 0.027 ± 0.059 for the first, -0.165 ± 0.074 for the second.

Q57H and Q57N are within error of each other in abundance fitness: -0.149 ± 0.11 for the first, -0.163 ± 0.092 for the second.

Compared with Q57E, Q57R is lower in abundance fitness: 0.248 ± 0.078 for the first, -0.286 ± 0.05 for the second.

Q57D and Q57A are within error of each other in abundance fitness: 0.158 ± 0.097 for the first, 0.046 ± 0.056 for the second.

Going from Q57L to R58S, the abundance fitness rises from -0.527 ± 0.066 to -0.008 ± 0.093.

R58H and R58T are within error of each other in abundance fitness: -0.013 ± 0.27 for the first, -0.108 ± 0.14 for the second.

Compared with R58M, R58I is lower in abundance fitness: 0.184 ± 0.13 for the first, -0.648 ± 0.29 for the second.

R58C and R58L are within error of each other in abundance fitness: 0.26 ± 0.13 for the first, 0.212 ± 0.1 for the second.

R58P and R58V are within error of each other in abundance fitness: -0.018 ± 0.11 for the first, 0.085 ± 0.1 for the second.

R58F and R58Y are within error of each other in abundance fitness: -0.162 ± 0.22 for the first, 0.1 ± 0.28 for the second.

R58Q and R58A are within error of each other in abundance fitness: 0.16 ± 0.12 for the first, 0.188 ± 0.088 for the second.

R58W and R58K are within error of each other in abundance fitness: 0.061 ± 0.087 for the first, 0.008 ± 0.23 for the second.

First: R58G
Second: R58D
The abundance fitness of the first is higher: 0.093 ± 0.071 for the first, -0.244 ± 0.21 for the second.

A50I and A50M are within error of each other in abundance fitness: -0.194 ± 0.15 for the first, -0.076 ± 0.097 for the second.

First: A50K
Second: A50Q
The abundance fitness of the first is lower: -0.765 ± 0.12 for the first, -0.212 ± 0.084 for the second.

First: A50R
Second: A50D
The abundance fitness of the first is lower: -0.818 ± 0.072 for the first, -0.299 ± 0.13 for the second.

Compared with A50L, A50N is lower in abundance fitness: -0.084 ± 0.075 for the first, -0.629 ± 0.13 for the second.

A50C and A50E are within error of each other in abundance fitness: -0.008 ± 0.1 for the first, -0.224 ± 0.14 for the second.

Compared with A50S, A50W is lower in abundance fitness: -0.382 ± 0.074 for the first, -0.627 ± 0.089 for the second.

Going from A50Y to A50P, the abundance fitness rises from -0.895 ± 0.23 to -0.351 ± 0.12.

A50T and A50H are within error of each other in abundance fitness: -0.43 ± 0.1 for the first, -0.606 ± 0.28 for the second.

A50G and A50F are within error of each other in abundance fitness: -0.462 ± 0.066 for the first, -0.485 ± 0.19 for the second.

Y54L and Y54E are within error of each other in abundance fitness: -0.085 ± 0.4 for the first, -0.363 ± 0.36 for the second.

First: A53R
Second: A53K
The abundance fitness of the first is lower: -0.452 ± 0.065 for the first, -0.174 ± 0.1 for the second.

In the case of A53E, the abundance fitness is reported as 0.317 ± 0.08.
